From US20220213157A1 (PEKING UNIVERSITY, published 2022)

B1: rat CSQ2 (calsequestrin 2), amino acids 20-413, without the signal peptide (other)
chain: EEGLNFPTYDGKDRVVSLSEKNLKQVLKRYDLLCLYYHEPVSSDKVAQKQFQLKEIVLELVAQVLEHKNIGFVMVDSRKEAKLAKRLGFSEEGSLYVLKGGRTIEFDGEFAADVLVEFLLDLIEDPVEIVNNKLEVQAFERIEDQIKLLGFFKNEDSEYYKAFQEAAEHFQPYIKFFATFDKGVAKKLSLKMNEVGFYEPFMDEPSVIPNKPYTEEELVEFVKEHQRPTLRPLRPEDMFETWEDDLNGIHIVAFAEKSDPDGYEFLEILKQVARDNTDNPDLSILWIDPDDFPLLVAYWEKTFKIDLFKPQIGVVNVTDADSVWMEIPDDDDLPTAEELEDWIEDVLSGKINTEDDDNEDEDDDGDNDNDDDDDDDDNDDEDNDDDDDDDDDDE
notes: Entered as the monomer

What was measured:
[1] = target: human CSQ2 D348C mutant, without the signal peptide (human) (UniProt O14958); assay: cell-based or functional assay
[2] = target: the molecule itself; assay: crystal structure of rat CSQ2 with 200 mM Ca2+, homodimers in the asymmetric unit
Method: Human CSQ2 crystals were obtained according to a hanging drop vapor diffusion method (24-well hanging drop plate, XtalQuest) at 16° C. using 1.5 μL protein solution (25 mg/ml) and 1.5 μL reservoir solution containing 100 mM Na cacodylate (pH 6.0), 25% (vol/vol) 2-methyl-2,4-pentanedio (MPD) and 40 mM calcium lactate. Small needle-like crystals appeared within two days. After several rounds of stick seeding, the crystals had grown to approximately 50×50×400 μm. The Se-Met CSQ2 crystals were obtained using the same process. Diffraction data of native and Se-Met crystals were collected and were prcessed using CCP4 program suit (see, e.g., Winn, M. D. et al. Overview of the CCP4 suite and current developments. Acta. Crystallogr. D. Biol. Crystallogr. 67, 235-242 (2011). doi: 10.1107/S0907444910045749). The initial phase was determined by MR-SAD using PHENIX (see, e.g., P. D. Adams et al., PHENIX: a comprehensive Python-based system for macromolecular structure solution. Acta. Crystallogr. D. Biol. Crystallogr. 66, 213-221 (2010). doi: 10.1107/S0907444909052925). […] The phase was determined by molecular replacement using human CSQ2 structure as a searching model. […]
The crystal structures of the human CSQ2 protein and the rat CSQ2 protein were determined to be 2.2 Å and 2.8 Å with a high concentration of Ca²⁺ in the reservoir solution (40 mM Ca²⁺ for human CSQ2, 200 mM Ca²⁺ for rat CSQ2). […]

Molecule | current of the CSQ2-immobilized single-molecule junction at 25 mV bias (1 mM Ca2+, 1.2 mM Mg2+) [1] [pA] | binding result [2]
human CSQ2 D348C mutant, without the signal peptide (from UniProt O14958 20-399) | 15 | –
B1 | – | binds
